Target: the molecule itself
Assay: cross-linking

B1: Ebola virus nucleoprotein (NP), wild type, expressed for DSP cross-linking (natural protein)
chain: MDSRPQKIWMAPSLTESDMDYHKILTAGLSVQQGIVRQRVIPVYQVNNLEEICQLIIQAFEAGVDFQESADSFLLMLCLHHAYQGDYKLFLESGAVKYLEGHGFRFEVKKRDGVKRLEELLPAVSSGKNIKRTLAAMPEEETTEANAGQFLSFASLFLPKLVVGEKACLEKVQRQIQVHAEQGLIQYPTAWQSVGHMMVIFRLMRTNFLIKFLLIHQGMHMVAGHDANDAVISNSVAQARFSGLLIVKTVLDHILQKTERGVRLHPLARTAKVKNEVNSFKAALSSLAKHGEYAPFARLLNLSGVNNLEHGLFPQLSAIALGVATAHGSTLAGVNVGEQYQQLREAATEAEKQLQQYAESRELDHLGLDDQEKKILMNFHQKKNEISFQQTNAMVTLRKERLAKLTEAITAASLPKTSGHYDDDDDIPFPGPINDDDNPGHQDDDPTDSQDTTIPDVVVDPDDGSYGEYQSYSENGMNAPDDLVLFDLDEDDEDTKPVPNRSTKGGQQKNSQKGQHIEGRQTQSRPIQNVPGPHRTIHHASAPLTDNDRRNEPSGSTSPRMLTPINEEADPLDDADDETSSLPPLESDDEEQDRDGTSNRTPTVAPPAPVYRDHSEKKELPQDEQQDQDHTQEARNQDSDNTQSEHSFEEMYRHILRSQGPFDAVLYYHMMKDEPVVFSTSDGKEYTYPDSLEEEYPPWLTEKEAMNEENRFVTLDGQQFYWPVMNHKNKFMAILQHHQ
Question: B1 was tested. Which “stoichiometry N” value did it give?
Answer: The value was 2.
